Data taken from PMC5436050.

Molecular target: H1G101C, a mutant of X. laevis linker histone H1°, labeled with Cy5 (Xenopus laevis) (UniProt P22844)

N-terminally His6-tagged yeast Nap1, sequence (P25293 whole entry): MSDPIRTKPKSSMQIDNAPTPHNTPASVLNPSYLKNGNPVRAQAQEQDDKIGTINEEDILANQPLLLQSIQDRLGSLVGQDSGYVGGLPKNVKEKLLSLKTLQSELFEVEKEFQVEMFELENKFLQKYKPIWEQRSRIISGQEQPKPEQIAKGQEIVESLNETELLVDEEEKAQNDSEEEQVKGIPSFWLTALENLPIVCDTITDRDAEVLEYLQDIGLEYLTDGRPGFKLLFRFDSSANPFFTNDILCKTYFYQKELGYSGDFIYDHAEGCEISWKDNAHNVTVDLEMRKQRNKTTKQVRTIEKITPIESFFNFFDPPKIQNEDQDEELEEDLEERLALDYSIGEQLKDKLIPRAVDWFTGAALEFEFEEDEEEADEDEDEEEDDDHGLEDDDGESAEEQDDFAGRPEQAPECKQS

percent of nucleosomes still bound with H1 with 60 nM Nap1: 17.5%
Substance: N-terminally His6-tagged yeast Nap1 (from UniProt P25293 1-417) (natural protein)
